Drawing on publication doi:10.1101/2024.03.15.585299, “Biochemical analysis of the endoribonuclease activity of the human mitochondrial topoisomerase 1”, this text covers Kd for three molecules.

For orientation: Kd means the equilibrium constant for the complex coming apart.

The labels stand for the following.
T1: hTop1mt-Y559F (catalytically inactive) (Homo sapiens, UniProt Q969P6 51-601, Y559F)
T1 sequence: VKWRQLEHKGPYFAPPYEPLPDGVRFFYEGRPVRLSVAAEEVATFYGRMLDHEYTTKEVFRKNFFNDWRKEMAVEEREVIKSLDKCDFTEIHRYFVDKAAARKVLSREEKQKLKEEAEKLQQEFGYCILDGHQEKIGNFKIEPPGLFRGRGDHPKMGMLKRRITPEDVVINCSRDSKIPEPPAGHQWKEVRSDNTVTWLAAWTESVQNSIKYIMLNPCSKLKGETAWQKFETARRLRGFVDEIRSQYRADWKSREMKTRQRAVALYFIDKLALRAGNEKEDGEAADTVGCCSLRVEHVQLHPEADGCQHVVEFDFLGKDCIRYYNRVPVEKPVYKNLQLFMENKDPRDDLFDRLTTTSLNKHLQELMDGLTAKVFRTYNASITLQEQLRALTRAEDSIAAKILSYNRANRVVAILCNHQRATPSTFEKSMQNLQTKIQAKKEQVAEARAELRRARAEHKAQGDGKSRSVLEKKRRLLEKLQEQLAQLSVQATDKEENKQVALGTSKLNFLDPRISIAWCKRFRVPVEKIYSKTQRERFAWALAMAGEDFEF

T2: scTop1 catalytically inactive (Y272F as printed) (Saccharomyces cerevisiae, UniProt P04786 1-769, Y727F)
T2 sequence: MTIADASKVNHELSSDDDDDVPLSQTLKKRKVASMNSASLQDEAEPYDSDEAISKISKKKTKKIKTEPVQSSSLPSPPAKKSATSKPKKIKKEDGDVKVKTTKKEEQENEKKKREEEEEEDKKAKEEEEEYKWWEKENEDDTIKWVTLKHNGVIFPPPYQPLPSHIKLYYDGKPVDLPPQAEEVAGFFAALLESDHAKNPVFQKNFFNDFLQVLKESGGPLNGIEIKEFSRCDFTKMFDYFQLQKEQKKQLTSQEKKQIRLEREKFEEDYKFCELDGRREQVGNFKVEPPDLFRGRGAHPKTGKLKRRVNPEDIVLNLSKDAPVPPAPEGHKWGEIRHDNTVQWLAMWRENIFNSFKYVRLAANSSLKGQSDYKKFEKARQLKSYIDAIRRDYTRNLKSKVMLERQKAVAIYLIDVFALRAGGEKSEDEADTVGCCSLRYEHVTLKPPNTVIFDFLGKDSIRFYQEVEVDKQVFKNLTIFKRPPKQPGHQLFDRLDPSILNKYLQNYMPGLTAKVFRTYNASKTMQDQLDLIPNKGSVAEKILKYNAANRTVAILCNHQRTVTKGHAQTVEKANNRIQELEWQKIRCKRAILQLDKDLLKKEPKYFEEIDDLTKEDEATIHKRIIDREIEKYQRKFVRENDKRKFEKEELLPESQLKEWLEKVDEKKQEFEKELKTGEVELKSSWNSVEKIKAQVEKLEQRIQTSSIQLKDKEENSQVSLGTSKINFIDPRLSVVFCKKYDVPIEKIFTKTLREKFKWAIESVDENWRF

B1: Substrate C (dsDNA)
DNA 1: ACTCGTCACGAGAGAGATGCCACGGTATTTCAAA
DNA 2: TTTGAAATACCGTGGCATCTCTCTCGTGACGAGT
B2: Substrate D (dsDNA)
DNA 1: B1 DNA 1
DNA 2: B1 DNA 2
modifications: single ribonucleotide rG at position 16 of top strand (2 nt upstream of cleavage site), rest DNA
B3: Substrate A (dsDNA)
DNA 1: AGCGTTGAAGATATGTGGCAAAACCTTTGT
DNA 2: ACAAAGGTTTTGCCACATATCTTCAACGCT

Sequence of hTop1-Y723F (catalytically inactive) (P11387 whole entry Y723F): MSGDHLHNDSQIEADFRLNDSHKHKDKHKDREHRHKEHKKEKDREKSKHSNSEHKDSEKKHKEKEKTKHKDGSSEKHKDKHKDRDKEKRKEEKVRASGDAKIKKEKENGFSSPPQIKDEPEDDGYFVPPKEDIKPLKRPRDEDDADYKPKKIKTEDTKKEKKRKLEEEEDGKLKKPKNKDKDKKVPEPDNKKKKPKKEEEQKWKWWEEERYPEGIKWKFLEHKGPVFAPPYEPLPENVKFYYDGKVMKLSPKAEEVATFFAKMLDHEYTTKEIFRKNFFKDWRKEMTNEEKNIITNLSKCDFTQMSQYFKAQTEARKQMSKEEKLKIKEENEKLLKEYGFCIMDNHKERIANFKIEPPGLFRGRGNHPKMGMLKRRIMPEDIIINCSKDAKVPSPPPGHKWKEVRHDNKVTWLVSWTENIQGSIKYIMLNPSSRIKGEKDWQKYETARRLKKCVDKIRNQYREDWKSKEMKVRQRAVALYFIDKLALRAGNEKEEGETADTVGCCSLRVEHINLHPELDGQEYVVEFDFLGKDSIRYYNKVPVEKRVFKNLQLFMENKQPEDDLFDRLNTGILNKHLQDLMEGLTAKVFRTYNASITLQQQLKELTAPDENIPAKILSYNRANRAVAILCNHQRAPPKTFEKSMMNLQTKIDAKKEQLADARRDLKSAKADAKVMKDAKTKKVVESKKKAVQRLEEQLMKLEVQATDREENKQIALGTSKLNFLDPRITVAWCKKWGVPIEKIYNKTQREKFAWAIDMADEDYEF

One series has as its target hTop1-Y723F (catalytically inactive) (Homo sapiens, UniProt P11387 1-765, Y723F). Description: fluorescence anisotropy; 20 mM Tris pH 8, 66 mM NaCl, 1 mM DTT, 10% glycerol, 25 C, 10 min; 0.5 nM dsDNA, 0-60 nM Top1. To be noted: protein: recombinant; tags: GST removed by 3C protease; label: 5'-FAM top strand; blunt. In general terms: Polarisation of emitted light reports the rotation of a fluorescent probe.
In the case of B1, the Kd amounted to 1.26 nM.
Regarding B2, the Kd came to 1.36 nM.
The same measure, in the same setting: the figure for B3 is 1.16 nM.

The next series deals with T1, hTop1mt-Y559F (catalytically inactive). Described as above. The conditions noted are these: protein: recombinant; tags: GST removed by 3C protease; label: 5'-FAM top strand; blunt.
For B1, the Kd is 4.57 nM.
The same measure, in the same setting: next, B2: 2.29 nM; B3: 3.5 nM.

The target of a further series is T2, scTop1 catalytically inactive (Y272F as …). Described as above. To be noted: protein: recombinant; tags: GST removed by 3C protease; label: 5'-FAM top strand; blunt.
On to B1, for which the dissociation constant (Kd) amounted to 9.47 nM.
The same measure, in the same setting: the figure for B2 is 8.75 nM.
The same measure, in the same setting: the figure for B3 is 3.55 nM.
